According to the supplement of paper PMC10065799, “High-throughput profiling of sequence recognition by tyrosine kinases and SH2 domains using bacterial peptide display” (eLife, 2023):

Columns and labels:
AncSZ = experiment: phosphorylation enrichment, bacterial display (enrichment ratio); higher = better substrate or ligand; peptides without Tyr show the background
EPHB1 = EPHB1 (UniProt P54762); experiment: as above
EPHB2 = EPHB2 (UniProt P29323); experiment: as above
FGFR1 = FGFR1 (UniProt P11362); experiment: as above
FGFR3 = FGFR3 (UniProt P22607); experiment: as above
Fer (mouse) = experiment: as above
Fes = Fes (UniProt P07332); experiment: as above
Fyn = Fyn (UniProt P06241); experiment: as above
Hck = Hck (UniProt P08631); experiment: as above
Jak2 = Jak2 (UniProt O60674); experiment: as above
MERTK = MERTK (UniProt Q12866); experiment: as above
c-Abl (mouse) = experiment: as above
c-Src = experiment: as above
Grb2 SH2 = Grb2 SH2 (UniProt P62993); experiment: SH2 binding enrichment of the phosphorylated peptide, bacterial display (enrichment ratio); higher = better substrate or ligand; peptides without Tyr show the background
SHP2-C SH2 = experiment: as above
c-Src SH2 = experiment: as above
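For SH2 binding enrichment of the phosphorylated peptide, bacterial display in this document: peptide library displayed on the E. coli surface as eCPX fusions, selected cells deep-sequenced, score is each peptide's frequency after selection divided by its frequency in the input.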
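For phosphorylation enrichment, bacterial display in this document: 11-residue human phosphosite peptides and single-mutation variants displayed on the E. coli surface, counted by deep sequencing, each peptide's frequency after selection divided by its frequency in the unselected input library; frequency after pTyr selection over input frequency; kinase dosed for 20-30% of maximal phosphorylation in three min.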

Sequence of FGFR3 (P22607 whole entry, looked up): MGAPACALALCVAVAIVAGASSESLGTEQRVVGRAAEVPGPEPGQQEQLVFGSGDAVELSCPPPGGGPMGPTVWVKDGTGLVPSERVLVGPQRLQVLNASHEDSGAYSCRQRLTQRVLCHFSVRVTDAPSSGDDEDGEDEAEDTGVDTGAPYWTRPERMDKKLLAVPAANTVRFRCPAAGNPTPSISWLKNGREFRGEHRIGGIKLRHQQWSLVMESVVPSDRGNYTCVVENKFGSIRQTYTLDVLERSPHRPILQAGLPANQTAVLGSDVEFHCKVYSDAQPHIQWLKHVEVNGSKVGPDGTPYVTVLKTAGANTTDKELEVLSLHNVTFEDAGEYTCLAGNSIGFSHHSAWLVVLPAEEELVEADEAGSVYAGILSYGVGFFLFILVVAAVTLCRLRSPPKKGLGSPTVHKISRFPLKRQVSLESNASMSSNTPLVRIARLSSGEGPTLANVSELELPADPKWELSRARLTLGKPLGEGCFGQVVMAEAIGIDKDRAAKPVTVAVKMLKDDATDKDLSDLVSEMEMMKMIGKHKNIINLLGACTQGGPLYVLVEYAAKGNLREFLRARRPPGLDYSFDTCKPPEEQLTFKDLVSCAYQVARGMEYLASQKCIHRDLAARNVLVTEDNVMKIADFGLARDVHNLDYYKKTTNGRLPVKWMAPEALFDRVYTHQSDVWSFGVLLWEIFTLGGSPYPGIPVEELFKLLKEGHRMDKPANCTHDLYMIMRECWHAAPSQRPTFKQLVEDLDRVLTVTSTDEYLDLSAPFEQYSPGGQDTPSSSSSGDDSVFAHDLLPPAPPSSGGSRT
Sequence of Hck (P08631 whole entry, looked up): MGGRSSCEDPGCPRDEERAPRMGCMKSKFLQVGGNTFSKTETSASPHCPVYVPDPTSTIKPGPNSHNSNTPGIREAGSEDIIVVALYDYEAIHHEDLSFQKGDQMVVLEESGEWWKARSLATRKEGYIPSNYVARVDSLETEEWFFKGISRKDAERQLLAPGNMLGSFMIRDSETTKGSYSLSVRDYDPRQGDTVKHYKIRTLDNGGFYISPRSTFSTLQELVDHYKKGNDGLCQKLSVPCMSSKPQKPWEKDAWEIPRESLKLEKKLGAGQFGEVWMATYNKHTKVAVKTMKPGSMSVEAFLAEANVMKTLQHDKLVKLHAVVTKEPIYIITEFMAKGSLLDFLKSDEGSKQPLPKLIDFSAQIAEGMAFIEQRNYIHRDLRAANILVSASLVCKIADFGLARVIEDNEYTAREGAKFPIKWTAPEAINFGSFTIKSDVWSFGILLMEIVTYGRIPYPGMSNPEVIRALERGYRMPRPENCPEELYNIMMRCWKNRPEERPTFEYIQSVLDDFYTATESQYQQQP
Sequence of MERTK (Q12866 whole entry, looked up): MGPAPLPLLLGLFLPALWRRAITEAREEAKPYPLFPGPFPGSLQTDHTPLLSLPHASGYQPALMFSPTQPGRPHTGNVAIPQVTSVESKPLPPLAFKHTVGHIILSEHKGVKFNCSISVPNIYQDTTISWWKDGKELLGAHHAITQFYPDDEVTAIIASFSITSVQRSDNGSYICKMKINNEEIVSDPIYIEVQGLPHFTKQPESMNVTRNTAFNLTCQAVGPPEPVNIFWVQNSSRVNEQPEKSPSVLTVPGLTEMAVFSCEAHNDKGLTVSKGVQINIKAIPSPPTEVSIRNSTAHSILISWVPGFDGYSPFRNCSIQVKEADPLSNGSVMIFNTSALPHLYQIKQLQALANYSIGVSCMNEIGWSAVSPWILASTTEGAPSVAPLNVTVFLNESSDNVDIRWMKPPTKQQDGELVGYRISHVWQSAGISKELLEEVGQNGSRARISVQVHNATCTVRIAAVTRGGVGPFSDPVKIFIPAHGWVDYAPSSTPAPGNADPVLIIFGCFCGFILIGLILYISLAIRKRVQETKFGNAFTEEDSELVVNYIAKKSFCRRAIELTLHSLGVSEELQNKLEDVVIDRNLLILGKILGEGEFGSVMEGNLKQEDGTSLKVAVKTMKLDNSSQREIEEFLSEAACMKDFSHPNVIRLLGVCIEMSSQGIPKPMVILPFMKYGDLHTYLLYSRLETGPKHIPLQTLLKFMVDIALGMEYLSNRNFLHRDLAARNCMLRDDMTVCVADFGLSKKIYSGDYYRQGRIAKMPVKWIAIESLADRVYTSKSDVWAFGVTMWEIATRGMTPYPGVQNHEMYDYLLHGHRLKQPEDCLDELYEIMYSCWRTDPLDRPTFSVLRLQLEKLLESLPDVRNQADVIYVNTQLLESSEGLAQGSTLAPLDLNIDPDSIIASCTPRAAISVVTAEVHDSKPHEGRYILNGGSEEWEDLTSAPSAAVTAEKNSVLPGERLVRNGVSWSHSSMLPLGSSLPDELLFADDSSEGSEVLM
Sequence of Fes (P07332 whole entry, looked up): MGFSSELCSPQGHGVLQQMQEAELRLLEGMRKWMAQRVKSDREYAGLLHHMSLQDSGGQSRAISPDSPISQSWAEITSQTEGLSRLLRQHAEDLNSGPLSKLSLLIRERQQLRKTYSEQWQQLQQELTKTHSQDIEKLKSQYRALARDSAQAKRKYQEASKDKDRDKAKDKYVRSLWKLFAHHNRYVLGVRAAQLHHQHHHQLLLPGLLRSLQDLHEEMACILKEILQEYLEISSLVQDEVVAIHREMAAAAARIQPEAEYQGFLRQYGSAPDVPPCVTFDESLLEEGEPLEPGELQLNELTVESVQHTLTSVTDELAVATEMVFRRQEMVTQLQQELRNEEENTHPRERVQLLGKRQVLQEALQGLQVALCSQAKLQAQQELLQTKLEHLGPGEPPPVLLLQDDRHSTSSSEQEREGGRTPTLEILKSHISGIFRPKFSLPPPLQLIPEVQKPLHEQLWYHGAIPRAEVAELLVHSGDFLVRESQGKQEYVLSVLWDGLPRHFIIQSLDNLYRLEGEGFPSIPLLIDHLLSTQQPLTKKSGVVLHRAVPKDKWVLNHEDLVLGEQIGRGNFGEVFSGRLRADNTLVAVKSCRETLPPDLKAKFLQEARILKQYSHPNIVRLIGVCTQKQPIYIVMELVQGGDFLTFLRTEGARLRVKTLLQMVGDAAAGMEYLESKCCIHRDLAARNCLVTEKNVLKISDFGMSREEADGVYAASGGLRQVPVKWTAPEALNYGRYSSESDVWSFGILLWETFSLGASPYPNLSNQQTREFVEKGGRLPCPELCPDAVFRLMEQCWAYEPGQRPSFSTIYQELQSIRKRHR
Sequence of EPHB2 (P29323 whole entry, looked up): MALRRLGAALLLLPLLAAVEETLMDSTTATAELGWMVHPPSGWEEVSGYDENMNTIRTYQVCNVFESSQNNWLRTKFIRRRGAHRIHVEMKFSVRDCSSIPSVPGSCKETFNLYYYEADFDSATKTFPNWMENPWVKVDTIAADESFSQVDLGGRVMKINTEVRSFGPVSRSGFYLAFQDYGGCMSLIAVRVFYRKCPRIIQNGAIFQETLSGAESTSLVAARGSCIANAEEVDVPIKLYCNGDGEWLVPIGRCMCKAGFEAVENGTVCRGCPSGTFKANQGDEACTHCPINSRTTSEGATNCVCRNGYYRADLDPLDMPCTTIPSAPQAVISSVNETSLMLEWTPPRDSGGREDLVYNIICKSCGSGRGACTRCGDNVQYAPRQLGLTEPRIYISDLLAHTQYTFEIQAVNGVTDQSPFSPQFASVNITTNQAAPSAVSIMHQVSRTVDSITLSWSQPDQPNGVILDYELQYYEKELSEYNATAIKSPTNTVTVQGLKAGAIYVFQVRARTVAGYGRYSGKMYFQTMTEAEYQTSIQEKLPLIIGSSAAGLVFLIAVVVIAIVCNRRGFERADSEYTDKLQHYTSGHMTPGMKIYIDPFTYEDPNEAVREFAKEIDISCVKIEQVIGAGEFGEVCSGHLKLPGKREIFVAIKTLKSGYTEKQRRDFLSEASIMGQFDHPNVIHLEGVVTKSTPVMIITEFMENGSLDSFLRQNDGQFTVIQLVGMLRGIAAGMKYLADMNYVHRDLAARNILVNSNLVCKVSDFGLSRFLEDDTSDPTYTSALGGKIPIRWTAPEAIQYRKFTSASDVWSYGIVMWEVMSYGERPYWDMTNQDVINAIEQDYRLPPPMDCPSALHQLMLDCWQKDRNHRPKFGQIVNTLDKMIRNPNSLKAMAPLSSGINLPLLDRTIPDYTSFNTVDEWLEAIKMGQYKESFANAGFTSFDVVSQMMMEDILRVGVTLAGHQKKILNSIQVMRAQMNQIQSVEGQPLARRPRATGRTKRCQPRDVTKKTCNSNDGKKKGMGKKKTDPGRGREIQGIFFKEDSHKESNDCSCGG
Sequence of FGFR1 (P11362 whole entry, looked up): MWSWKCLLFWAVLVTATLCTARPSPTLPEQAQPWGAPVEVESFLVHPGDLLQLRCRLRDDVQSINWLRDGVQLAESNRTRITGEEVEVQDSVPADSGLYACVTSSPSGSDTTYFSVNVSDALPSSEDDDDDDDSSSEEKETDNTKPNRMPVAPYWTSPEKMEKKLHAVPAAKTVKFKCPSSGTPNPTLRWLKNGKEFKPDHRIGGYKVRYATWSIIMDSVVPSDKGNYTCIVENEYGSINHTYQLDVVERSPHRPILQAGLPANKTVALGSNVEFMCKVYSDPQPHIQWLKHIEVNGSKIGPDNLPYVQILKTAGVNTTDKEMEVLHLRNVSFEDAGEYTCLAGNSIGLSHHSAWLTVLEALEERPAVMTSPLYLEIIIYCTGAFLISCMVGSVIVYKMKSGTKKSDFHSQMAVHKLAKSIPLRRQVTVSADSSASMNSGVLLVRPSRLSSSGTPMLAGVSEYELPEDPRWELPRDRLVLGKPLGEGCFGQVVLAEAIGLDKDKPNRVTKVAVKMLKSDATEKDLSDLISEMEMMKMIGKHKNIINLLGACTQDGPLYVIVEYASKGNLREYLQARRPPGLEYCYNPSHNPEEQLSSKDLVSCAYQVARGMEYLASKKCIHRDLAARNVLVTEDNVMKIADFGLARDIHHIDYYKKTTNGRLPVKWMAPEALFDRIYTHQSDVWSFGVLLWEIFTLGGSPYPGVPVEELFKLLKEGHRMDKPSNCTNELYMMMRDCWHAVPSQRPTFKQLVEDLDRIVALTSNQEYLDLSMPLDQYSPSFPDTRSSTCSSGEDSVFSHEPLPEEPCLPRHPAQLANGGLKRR

| SH2 binding enrichment (Grb2 SH2) | SH2 binding enrichment (SHP2-C SH2) | SH2 binding enrichment (c-Src SH2) | Sequence | phosphorylation enrichment (AncSZ) | phosphorylation enrichment (EPHB1) | phosphorylation enrichment (EPHB2) | phosphorylation enrichment (FGFR1) | phosphorylation enrichment (FGFR3) | phosphorylation enrichment (Fer (mouse)) | phosphorylation enrichment (Fes) | phosphorylation enrichment (Fyn) | phosphorylation enrichment (Hck) | phosphorylation enrichment (Jak2) | phosphorylation enrichment (MERTK) | phosphorylation enrichment (c-Abl (mouse)) | phosphorylation enrichment (c-Src) |
| --- | --- | --- | --- | --- | --- | --- | --- | --- | --- | --- | --- | --- | --- | --- | --- | --- |
| 0.964 | 1.34 | 0.959 | IQVNAYFSPIH [ADSL_Y432_D430N] | 1.76 | 0.727 | 0.536 | 0.595 | 0.795 | 0.548 | 1.29 | 0.431 | 0.543 | 2.16 | 0.589 | 1.14 | 0.543 |
| 0.761 | 0.498 | 0.397 | LTDLRYKVSGL | 0.581 | 0.379 | 0.479 | 0.496 | 0.437 | 0.404 | 0.725 | 0.352 | 0.377 | 0.575 | 0.427 | 0.565 | 0.46 |
| 0.95 | 0.765 | 1.39 | CVAARYMDMKG [WFIKKN2_Y93_V96M] | 0.755 | 0.394 | 0.428 | 0.36 | 0.637 | 0.431 | 0.984 | 0.439 | 0.471 | 0.654 | 0.446 | 0.542 | 0.39 |
| 0.831 | 0.733 | 0.548 | ASLEAYCKHKY [RXRA_Y403] | 0.964 | 0.53 | 0.501 | 0.472 | 0.658 | 0.424 | 1.01 | 0.503 | 0.455 | 0.799 | 0.392 | 0.727 | 0.411 |
| 0.887 | 0.571 | 0.538 | NDLMEYPKQHG [ASS1_Y163_A164P] | 0.738 | 0.46 | 0.48 | 0.506 | 0.48 | 0.377 | 0.855 | 0.503 | 0.502 | 0.765 | 0.45 | 0.697 | 0.447 |
| 1.04 | 0.821 | 0.97 | CSRHFYQLTKL [AR_Y858_R856H] | 1.06 | 0.501 | 0.576 | 0.705 | 0.662 | 0.615 | 1.17 | 0.444 | 0.464 | 0.969 | 0.432 | 0.763 | 0.422 |
| 0.912 | 0.753 | 4.61 | EKSREYHRLFE [PIK3R1_Y463_D464H_YF] | 0.656 | 0.407 | 0.483 | 0.526 | 0.538 | 0.409 | 0.737 | 0.358 | 0.429 | 0.51 | 0.427 | 0.486 | 0.442 |
| 0.648 | 0.379 | 0.447 | KEGSAYGSQSV [NFKB2_Y868_D865G] | 0.58 | 0.461 | 0.384 | 0.312 | 0.498 | 0.423 | 0.75 | 0.395 | 0.426 | 0.673 | 0.436 | 0.632 | 0.468 |
| 0.798 | 0.727 | 0.413 | VQQVIYATGAL [MYH7_Y422] | 0.932 | 0.96 | 0.986 | 0.488 | 0.798 | 0.71 | 1 | 6.98 | 7.57 | 1.38 | 3.08 | 25.3 | 5.97 |
| 0.995 | 0.714 | 0.548 | RNGDRYFKGIV [DCX_Y64] | 0.709 | 0.335 | 0.619 | 0.444 | 0.483 | 0.549 | 0.632 | 0.665 | 0.419 | 0.626 | 0.433 | 0.664 | 0.455 |
| 0.841 | 1.07 | 0.678 | LERDIYNREEF [HLA-DPB1_Y59_Y57D] | 1.19 | 0.706 | 0.718 | 1.03 | 0.906 | 0.672 | 1.62 | 1.23 | 1.17 | 1.3 | 0.49 | 1.39 | 1.18 |
| 0.77 | 1.01 | 0.46 | RLSARYFQGDL [PDK3_Y337_Y334S] | 0.563 | 0.393 | 0.342 | 0.436 | 0.492 | 0.312 | 0.684 | 0.399 | 0.362 | 0.718 | 0.41 | 0.649 | 0.469 |
